Consider 12 molecules from patent publication US20240173426A1 (Regeneron, published 2024).

T1: human FGFR3b expressed with a C-terminal myc-myc-hexahistidine tag (hFGFR3b.mmH) (human)
T1 construct: monomeric; also called REGN3152; monomeric human FGFR3b
T1 chain: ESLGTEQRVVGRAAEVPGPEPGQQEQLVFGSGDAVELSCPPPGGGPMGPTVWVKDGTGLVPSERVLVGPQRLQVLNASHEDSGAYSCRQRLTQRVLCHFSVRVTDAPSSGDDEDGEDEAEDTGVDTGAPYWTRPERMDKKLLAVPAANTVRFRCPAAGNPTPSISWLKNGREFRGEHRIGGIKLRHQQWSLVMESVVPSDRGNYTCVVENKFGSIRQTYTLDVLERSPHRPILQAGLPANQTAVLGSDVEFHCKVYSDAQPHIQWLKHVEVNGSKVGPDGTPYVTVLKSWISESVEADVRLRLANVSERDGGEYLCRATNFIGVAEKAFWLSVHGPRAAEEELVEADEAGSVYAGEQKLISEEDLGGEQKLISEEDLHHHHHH

T2: cynomolgus FGFR3b expressed with a C-terminal myc-myc-hexahistidine tag (mfFGFR3b.mmH) (cynomolgus)
T2 construct: The name states R357G; also called REGN3521; mf FGFR3b ecto (R357G) (E23-G377;R357G).mmH
T2 chain: T1 chain with A13V, P17S, G22S, T57A, R94L, R171K

T3: murine FGFR3b expressed with a C-terminal myc-myc-hexahistidine tag (mFGFR3b.mmH) (mouse)
T3 construct: monomeric; also called REGN3215; monomeric murine FGFR3b
T3 chain: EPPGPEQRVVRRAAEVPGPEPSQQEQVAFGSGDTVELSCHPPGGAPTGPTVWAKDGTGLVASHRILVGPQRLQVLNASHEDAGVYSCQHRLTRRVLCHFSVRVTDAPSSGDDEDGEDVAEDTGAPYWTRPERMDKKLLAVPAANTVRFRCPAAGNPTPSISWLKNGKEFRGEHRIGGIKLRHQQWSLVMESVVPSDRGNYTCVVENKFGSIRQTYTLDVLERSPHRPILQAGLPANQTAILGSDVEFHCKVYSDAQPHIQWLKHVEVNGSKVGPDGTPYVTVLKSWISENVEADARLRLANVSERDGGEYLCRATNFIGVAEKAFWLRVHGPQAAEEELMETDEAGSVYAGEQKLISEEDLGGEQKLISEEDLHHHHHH

T4: human FGFR3b expressed with a C-terminal murine Fc tag (hFGFR3b.mFc) (human)
T4 construct: called dimeric; also called REGN3153; dimeric human FGFR3b
T4 chain: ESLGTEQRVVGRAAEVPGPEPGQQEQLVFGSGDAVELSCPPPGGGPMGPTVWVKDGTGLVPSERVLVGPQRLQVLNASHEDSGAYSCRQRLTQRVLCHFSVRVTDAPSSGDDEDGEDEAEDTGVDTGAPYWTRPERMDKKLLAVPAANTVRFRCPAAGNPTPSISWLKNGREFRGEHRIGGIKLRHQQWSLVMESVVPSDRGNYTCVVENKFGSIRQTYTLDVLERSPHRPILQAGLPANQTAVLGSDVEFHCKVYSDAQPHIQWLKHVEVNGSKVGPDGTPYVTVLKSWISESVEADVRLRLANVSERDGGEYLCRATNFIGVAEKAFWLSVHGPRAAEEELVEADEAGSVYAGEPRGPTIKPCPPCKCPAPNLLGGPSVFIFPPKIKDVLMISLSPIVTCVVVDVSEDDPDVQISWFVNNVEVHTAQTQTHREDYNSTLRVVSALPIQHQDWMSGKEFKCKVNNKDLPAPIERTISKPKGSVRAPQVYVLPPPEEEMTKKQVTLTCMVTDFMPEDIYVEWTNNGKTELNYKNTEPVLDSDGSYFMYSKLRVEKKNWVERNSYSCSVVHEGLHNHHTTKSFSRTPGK

B1: H4H30061P (antibody, human IgG4 S228P, kappa, V domains shown)
VH: EVQLVESGGGLAQPGGSLKLSCEASGFTFSDSAMHWVRQASGKGLEWVGRIRSKANSYATGYAASVKGRFTISRDDSKNMAFLEMNSLKTEDTAVYYCLRQTYGDPWGQGTLVTVSS
VL: DVVMTQSPLSLSVTLGQPASISCRSSLSLVYSDGNNYLNWFQQRPGQSPRRLLYKVFNRDSGVPDRFSGSGSGTDFTLKISRVEAEDVGVYYCMQGTHWPWTFGQGTKVEIKR
B2: H4H30108P2 (antibody, human IgG4 S228P, kappa, V domains shown)
VH: QVQLVQSGAEVKKPGASVKVSCKASGYTFNSYDVNWVRQATGQGLEWMGWMNPHSGNTGYAQKFQGRVTMTRDTSTSTSYMELSSLTSEDTAVYYCARGPFSLLSAEFFQHWGQGTLVTVSS
VL: not shown
B3: H4H30089P2 (antibody, human IgG4 S228P, kappa, V domains shown)
VH: EVQLVESGGGLVQPGGSLRLSCIVSGFIFSSYEMSWLRQAPGKGLEWISYISSSGRVIYYADSVKGRFTISRDSAKNSLYLEMNSLRAEDTAIYYCTRKWDSSGPFDFWGQGTLVTVSS
VL: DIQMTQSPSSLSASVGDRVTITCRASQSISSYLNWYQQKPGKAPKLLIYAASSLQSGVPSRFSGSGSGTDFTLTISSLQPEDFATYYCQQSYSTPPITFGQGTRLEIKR
B4: H4H30063P (antibody, human IgG4 S228P, kappa, V domains shown)
VH: QVQLQESGPGLVKPSETLSLTCTVSGDSINSYFWSWIRQLPGKELEWIGHIYSSGSTRYNPSLQSRVTISIDTSKNQFSLKLSSVTAADTAVYYCARGASAVDYWGQGTLVTVSS
VL: EIVLTQSPGTLSLSPGERATLSCRTSQSISSGYLAWYQQKPGQAPRLLIYGASRRATGIPDRFSGSGSGTDFTLTISRLEPEDFVVYYCQQYGSSPYTFGQGTKLEIKR
notes: Tested as whole antibody; also called anti-FGFR3b antibody H4H30063P
B5: H4H30095P2 (antibody, human IgG4 S228P, kappa, V domains shown)
VH: QVQLVQSGVEVKKPGASVKVSCKASGYTFKFYGISWVRQAPGQGLEWMGWISVYNGKTKYAQKLQGRVTMTTDTSTSTAYMELRSLRSDDTAVYFCARDGDYESSGYPFDYWGQGTLVTVSS
VL: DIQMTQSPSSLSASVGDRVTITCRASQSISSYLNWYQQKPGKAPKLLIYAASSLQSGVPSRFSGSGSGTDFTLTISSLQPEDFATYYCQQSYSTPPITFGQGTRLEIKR
B6: H4H30045P (antibody, human IgG4 S228P, kappa, V domains shown)
VH: QVQLVQSGAEVKKPGASVKVSCKTSGYRFVNYGFSWVRQAPGQGLEWMGWISPYNGNTNYIQNLQDRITMTTDTSTNTAYMELTNLRSDDTAVYYCATLTGVHFDYWGQGTLVTVSS
VL: AIQMTQSPSSLSASVGDRVTITCRASQGIRNDLGWYQQKPGKAPNLLIFETSRLQSGVPSRFSGSGSGTDFTLTINSLQPEDFATYYCLQDYNYPWTFGQGTKVEIKR
B7: H4H30066P (antibody, human IgG4 S228P, kappa, V domains shown)
VH: QVQLVQSGAEVKKPGASVKVSCKVSGYTLTELSMHWVRQAPGKGLEWMGGFDPEDGEIIYAQKFQGRVTMTEDTSTDTAYMDLSSLTSEDTAVYYCATEKQQLVRKYYFYYGLAVWGQGTTVTVSS
VL: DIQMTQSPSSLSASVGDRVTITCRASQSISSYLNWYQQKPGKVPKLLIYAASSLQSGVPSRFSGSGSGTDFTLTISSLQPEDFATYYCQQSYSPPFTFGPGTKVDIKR
B8: H4H30117P2 (antibody, human IgG4 S228P, kappa, V domains shown)
VH: QVQLVQSGAEVKKPGSSVKVSCKASGDTFSNYVIGWVRQAPGQGLEWMGGIIPIFGTTNYAQQFQGRVTITTDESTSTAYMELSSLRSEDTAVYYCARDGNYGDYFDYWGQGTLVTVSS
VL: not shown
B9: anti-FGFR3-hIgG1 comparator (REGN6331) (antibody, V domains shown)
VH: EVQLVESGGGLVQPGGSLRLSCAASGFTFTSTGISWVRQAPGKGLEWVGRIYPTSGSTNYADSVKGRFTISADTSKNTAYLQMNSLRAEDTAVYYCARTYGIYDLYVDYTEYVMDYWGQGTLVTVSS
VL: DIQMTQSPSSLSASVGDRVTITCRASQDVDTSLAWYKQKPGKAPKLLIYSASFLYSGVPSRFSGSGSGTDFTLTISSLQPEDFATYYCQQSTGHPQTFGQGTKVEIKR
notes: Human IgG1 comparator; also called COMP6331; anti-FGFR3 comparator antibody
B10: H4H30071P (antibody, human IgG4 S228P, kappa, V domains shown)
VH: QVQLQQSGPGLVKPSQTLSLTCAISGDSVSRNSAAWNWIRQSPSSGLEWLGRTYYRSKWFYDYAISVKSRITVNPDTSKNQFSLHLNSVTPEDTAVYYCARGYGGYEDYFDYWGQGTLVTVSS
VL: DIQMTQSPSSVSASVGDRVTITCRASQGISSWLAWYQQKPGKAPKLLIYGASSLQSGVPSRFSGSGSGTDFTLTISSLQPEDFATYFCQQGSSFPYTFGQGTKLEIKR
B11: H4H30076P (antibody, human IgG4 S228P, kappa, V domains shown)
VH: EVQLVESGGGLVQPGGSLRLSCAASGFTVSSNYMSWVRQAPGKGLEWVSIIYSGGHTYYSDSVKGRFTISRHNSKNTLYLQMNSLRGGDTAVYYCARGYTSGWYGFDFWGQGTLVTVSS
VL: B10 VL with S31T, G50A, S65T, F87Y, G91T, S92N, Y96W, L104V
B12: H4H30102P2 (antibody, human IgG4 S228P, kappa, V domains shown)
VH: EVQLVESGGDLVQPGGSLRLSCAASGFTFSSYEMNWVRQAPGKGLEWVSYISNSGSTIYYADSVKGRFTISRDNAETSLYLQMNSLRAEDTAVYYCAREGWGAYCAGDCYSGFDIWGQGTMVTVSS
VL: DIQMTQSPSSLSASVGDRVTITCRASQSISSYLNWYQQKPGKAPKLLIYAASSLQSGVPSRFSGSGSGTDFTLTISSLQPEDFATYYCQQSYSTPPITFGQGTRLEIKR

Changes are numbered by the printed parent chain.

One assay addresses T1, human FGFR3b expressed with a …. The experiment in a line: SPR (Biacore), captured mAb, 25 C. On the procedure: (§1) The CM5 Biacore sensor surface was derivatized by amine coupling with a monoclonal mouse anti-human Fc monoclonal antibody (REGN2567). All Biacore binding studies were performed in a buffer composed of 0.01M HEPES pH 7.4, 0.15 M NaCl, 3 mM EDTA, 0.05% v/v Surfactant P20 (HBS-EP running buffer). […] Antibody-reagent association was monitored for 5 minutes while dissociation in HBS-EP running buffer was monitored for 10 minutes. At the end of each cycle, the anti-FGFR3 antibody capture surface was regenerated using a 10 sec injection of 20 mM phosphoric acid. All binding kinetics experiments were performed at 25° C.
(§2) The specific SPR-Biacore sensorgrams were obtained by a double referencing procedure. The double referencing was performed by first subtracting the signal of each injection over a reference surface (anti-hFc) from the signal over the experimental surface (anti-hFc-captured anti-FGFR3 antibodies) thereby removing contributions from refractive index changes. In addition, running buffer injections were performed to allow subtraction of the signal changes resulting from the dissociation of captured antibodies from the coupled anti-hFc surface. Kinetic association (kₐ) and dissociation (kd) rate constants were determined by fitting the real-time sensorgrams to a 1:1 binding model using Scrubber v2.0c curve fitting software.
For orientation: t½ means the time in which the quantity being followed falls by half. Low readings indicate fast loss, high ones slow loss. For the molecule B1, the t½ turned out to be 132 min.
Still for that read-out and setting: as for B2, the figure is 72.6 min; as for B3, 4.1 min; as for B4, 302 min.
The molecule B5 had a t½ of 2.3 min.
The molecule B6 showed a t½ of 1.9 min.
Still for that read-out and setting: as for B7, the figure is 18.2 min; as for B8, 1.8 min.
One may read the koff as the rate constant with which the complex falls apart. A high value points to fast dissociation. The term kon denotes the second-order rate constant of association. A lower kon goes with slow association. B9: the off-rate (koff) was 0.000616 s⁻¹, the kon is 883000 M⁻¹ s⁻¹ and the t½ came to 18.8 min.
B10 yielded a t½ of 390 min.
Same read-out and setting: as for B11, the figure is 263 min.

Another assay addresses T5, human FGFR3c expressed with a C-terminal myc-myc-hexahistidine tag (hFGFR3c.mmH) (human, UniProt P22607 23-375).
T5 construct: monomeric; also called REGN3155; monomeric human FGFR3c
Put plainly: SPR (Biacore), captured mAb, 25 C. How it is done: as §1, §2
(SPR reads the build-up and loss of mass on a sensor chip optically.)
B1: the t½ was found to be 146 min.
Consider B5, for which the t½ was found to be 2.5 min.
Still for that read-out and setting: as for B6, the figure is 1.5 min; as for B8, 1.6 min.
B9 came in with a koff of 0.00132 s⁻¹, an on-rate (kon) of 544000 M⁻¹ s⁻¹ and a t½ of 8.77 min.

Another assay deals with T2, cynomolgus FGFR3b expressed with a …. Put plainly: SPR (Biacore), captured mAb, 25 C. How it is done: as §1, §2
On to B1, for which the t½ is 118 min.
The molecule B2 gave a t½ of 85.2 min.
Same read-out and setting: as for B3, the figure is 5.2 min; as for B4, 275 min.
The molecule B5 gave a t½ of 2.6 min.
Same read-out and setting: as for B6, the figure is 1.3 min.
The same measure, in the same setting: as for B7, the figure is 14.8 min; as for B8, 1.3 min; as for B12, 50.2 min.
The same measure, in the same setting: as for B10, the figure is 520 min; as for B11, 350 min.

A further assay deals with T3, murine FGFR3b expressed with a …. The experiment in a line: SPR (Biacore), captured mAb, 25 C. How it is done: as §1, §2
B2 returned a t½ of 5.8 min.
The same measure, in the same setting: as for B3, the figure is 4.9 min; as for B4, 416 min.
The same measure, in the same setting: as for B7, the figure is 2.4 min; as for B10, 6.9 min.
Regarding B11, the t½ stood at 320 min.

For another assay, the target named is T4, human FGFR3b expressed with a …. The experiment in a line: SPR (Biacore), captured mAb, 25 C. How it is done:
as §1, §2
In the case of B1, the t½ was not below 1160 min.
Still for that read-out and setting: as for B3, the figure is 608 min.
On the same count and under the same terms, as for B4, the figure is not below 1160 min; as for B5, 117 min; as for B6, 71.8 min.
Same read-out and setting: as for B7, the figure is not below 1160 min; as for B8, 87 min.
Consider B10, for which the t½ is not below 1160 min.
In the case of B11, the t½ is not below 1160 min.
